In publication PMC4757822, “Structural and biochemical characterization of an RNA/DNA binding motif in the N-terminal domain of RecQ4 helicases”:

Key:
hZnK (RecQ4 Zn knuckle) [1] = target: T1, hZnK (RecQ4 Zn knuckle) (human, UniProt O94761 394-427); assay: EMSA; details: 20 mM Tris-HCl pH 7.5, 2 mM MgCl2, 50 mM NaCl, 5% glycerol, 1 mM DTT, 5 mM ZnCl2, 0.1 mg/ml BSA, 10 nM probe, 30 min room temperature; 6% native gel in TBE at …
T1 chain: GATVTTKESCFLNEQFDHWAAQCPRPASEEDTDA

[2] = target: T2, hUpZnK (upstream Sld2-like region + Zn knuckle) (human) (UniProt O94761); assay: EMSA; details: 20 mM Tris-HCl pH 7.5, 2 mM MgCl2, 50 mM NaCl, 5% glycerol, 1 mM DTT, 5 mM ZnCl2, 0.1 mg/ml BSA, 10 nM probe, 30 min room temperature; 6% native gel in TBE at …
T2 sequence: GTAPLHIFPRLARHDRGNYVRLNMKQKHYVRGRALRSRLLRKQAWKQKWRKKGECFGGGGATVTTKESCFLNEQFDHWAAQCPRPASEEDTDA

[3] = system: xUpZnK (upstream Sld2-like region + Zn knuckle) (Xenopus laevis); assay: EMSA; details: 20 mM Tris-HCl pH 7.5, 2 mM MgCl2, 50 mM NaCl, 5% glycerol, 1 mM DTT, 5 mM ZnCl2, 0.1 mg/ml BSA, 10 nM probe, 30 min room temperature; 6% native gel in TBE at …
hZnK (RecQ4 Zn knuckle) [4] = target: T1, hZnK (RecQ4 Zn knuckle); assay: EMSA; 20 mM Tris-HCl pH 7.5, 2 mM MgCl2, 50 mM NaCl, 5% glycerol, 1 mM DTT, 5 mM ZnCl2, 0.1 mg/ml BSA, 10 nM probe, 30 min room temperature; 6% native gel in TBE at 4 C; details: protein: recombinant; tags: N-terminal 6His-GST (not cleaved); label: 5'-32P on one strand; blunt
[5] = target: T3, hUpZnK (upstream Sld2-like region + Zn knuckle) (human, UniProt O94761 335-427); assay: as above; details: protein: recombinant; tags: N-terminal 6His-GST (not cleaved); label: 5'-32P on one strand; blunt
T3 sequence: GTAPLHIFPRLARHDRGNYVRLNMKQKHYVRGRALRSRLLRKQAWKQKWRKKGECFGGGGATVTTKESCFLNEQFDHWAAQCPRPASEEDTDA

hZnK (RecQ4 Zn knuckle) [6] = target: T1, hZnK (RecQ4 Zn knuckle); assay: EMSA; 5 mM ZnCl2, 2 mM Mg2+; 20 mM Tris-HCl pH 7.5, 2 mM MgCl2, 50 mM NaCl, 5% glycerol, 1 mM DTT, 5 mM ZnCl2, 0.1 mg/ml BSA, 10 nM probe, 30 min room temperature; 6% native gel in TBE at 4 C; details: protein: recombinant, tags: N-terminal 6His-GST (not cleaved), label: 5'-32P on one strand, fork
[7] = target: T3, hUpZnK (upstream Sld2-like region + Zn …); assay: as above; details: protein: recombinant, tags: N-terminal 6His-GST (not cleaved), label: 5'-32P on one strand, fork
[8] = 22 bp plus 15 nt unpaired U arms (3' arm of A3, 5' arm of A4)
[9] = 22 bp plus 15 nt unpaired T arms (3' arm of A1, 5' arm of A2)

Question: ssDNA was tested. Which Kd (hZnK (RecQ4 Zn knuckle) [1]) did it give?
Answer: 500 nM

Question: And the Kd [2]?
Answer: 185 nM

Question: What about the Kd [3] of the same molecule?
Answer: 25 nM

Question: For “GTAGTGCATGTACACCACACTCTTTTTTTTTTTTTTT / TTTTTTTTTTTTTTTGAGTGTGGTGTACATGCACTAC [forkDNA (A1+A2)]”, which Kd [3] is on record?
Answer: 14 nM

Question: With “GUAGUGCAUGUACACCACACUCUUUUUUUUUUUUUUU / UUUUUUUUUUUUUUUGAGUGUGGUGUACAUGCACUAC [forkRNA (A3+A4)]” as the molecule, how does the Kd [3] read?
Answer: 5.4 nM

Question: How did the Kd (hZnK (RecQ4 Zn knuckle) [1]) turn out when ssRNA was run?
Answer: 220 nM

Question: And the Kd [2]?
Answer: 11 nM

Question: And the Kd [3]?
Answer: 7.3 nM

B1: 22 bp dsDNA (annealed region of fork) (dsDNA)
DNA 1: GTAGTGCATGTACACCACACTC
DNA 2: GAGTGTGGTGTACATGCACTAC
Question: Which results are given for B1?
Answer: binding result (hZnK (RecQ4 Zn knuckle) [4]): no binding; binding result [5]: no binding

B2: forkRNA (A3+A4) (dsRNA)
RNA 1: GUAGUGCAUGUACACCACACUCUUUUUUUUUUUUUUU
RNA 2: UUUUUUUUUUUUUUUGAGUGUGGUGUACAUGCACUAC
Question: Which results are given for B2?
Answer: Kd (hZnK (RecQ4 Zn knuckle) [6]; [8]): ~130 nM; Kd [7, 8]: 13 ± 1.1 nM

B3: forkDNA (A1+A2) (dsDNA)
DNA 1: GTAGTGCATGTACACCACACTCTTTTTTTTTTTTTTT
DNA 2: TTTTTTTTTTTTTTTGAGTGTGGTGTACATGCACTAC
Question: How did the Kd (hZnK (RecQ4 Zn knuckle) [6]; [9]) turn out when B3 was run?
Answer: ~270 nM

Question: What about the Kd [7, 9] of the same molecule?
Answer: 42 ± 2.8 nM
